Paper doi:10.1101/2025.09.11.675134, “Biodistribution-Driven Discovery Identifies a Glycosidase-Cleavable Linker to Reprogram Radiotheranostics” (bioRxiv, 2025)
Like-named read-outs stand apart in the source and are kept apart here.

Experiments:
[1] = Histopathology (H&E) after two-cycle therapy; format: in vivo, athymic nu/nu mice; conditions: mouse, in vivo
Procedure: To further assess tissue-level toxicity at the conclusion of the two-cycle therapy study, kidneys, livers, spleens, and tumors from representative mice were collected and evaluated histologically using hematoxylin and eosin (H&E) staining. Microscopic pathology was assessed and recorded in the MHL Pathology Database (Zaphod) according to a standardized five-point grading scale (normal, minimal, mild, moderate, marked). Terminology and criteria for pathological findings were consistent with the INHAND (International Harmonization of Nomenclature and Diagnostic Criteria) guidelines developed by the Society of Toxicologic Pathology.
At the conclusion of the two-cycle therapy study, kidneys, livers, spleens, and tumors from representative mice were collected and processed for histological evaluation using hematoxylin and eosin (H&E) staining. Microscopic pathology was assessed and recorded in the MHL Pathology Database (Zaphod) using a standardized five-point ordinal grading system (normal, minimal, mild, moderate, marked). Terminology and diagnostic criteria were consistent with the International Harmonization of Nomenclature and Diagnostic Criteria (INHAND) guidelines established by the Society of Toxicologic Pathology (https://www.toxpath.org/inhand.asp)([57]).

AR42J xenografts = test: Dosimetry estimates of 225Ac-labeled variants from biodistribution data; format: in vivo, athymic nu/nu mice; conditions: mouse, in vivo
Excerpt: To evaluate the organ-level radiation absorbed dose resulting from different DOTA-TATE derivatives, we calculated the total effective dose per unit of injected activity (Eff Dose/IA, mSv/MBq) for ^225Ac-labeled variants based on biodistribution data in AR42J xenograft-bearing mice (Tables S5).
Estimated absorbed doses for individual organs for ^225Ac- and ^86Y-labeled DOTA-TATE variants were derived from residence times calculated using %IA/g data from biodistribution studies. The time–activity curves incorporated data from both radionuclides to provide complete coverage of early and late time points. Details of the dosimetry methodology, including time–activity curve construction, integration approach, decay assumptions, and conversion to effective dose, are provided in the Supplementary Information.
Dosimetry: The dosimetry was calculated by measuring the residence time per gram for each organ using the percent injected activity per gram (%IA/g) data collected for the biodistribution study. Because two biodistribution data sample groups were collected, one for the 86Y and the other for the 225Ac variant of the three DOTA-TATE variants (DOTA-TATE, DOTA-MVK(ε)- TATE, and DOTA-β-Gal-TATE) the %IA/g time activity curves (TAC) of the 86Y variant were merged with the 225Ac TACs. This was possible because of the difference in half lives between 86Y and 225Ac being 14.74 and 237.8 hours respectively setting the measurement time points to be 1, 4 and 24 hours for the 86Y ligands and 24, 96 hours for 225Ac. The full time activity curve is thus made up of the 1 and 4 hour time points of the 86Y %IA/g data points, an average of the common 24 hour time point of the 86Y and 225Ac %IA/g data points and the last 96 hour %IA/g time point of the 225Ac samples. The full 4 time points of 1, 4, 24, and 96 hours making up the […]
from which the residence times were calculated.
The integration of the TAC was performed using trapezoidal interpolation between time points.
The first time point assumed constant activity and a decay curve with the half life of the radioisotope was used to estimate activity beyond 96 hours. The average %IA/g was used for each tissue sample for each time point and the resulting standard deviation of the average was then used as the error estimate per time point to propagate through the residence time calculation.
Using the residence time for each TAC, the dose was calculated by looking up the dose per decay for each alpha, beta (positron and electron from nuclear beta decay) and electron emission listed in the nuclear data sheets provided by the Brookhaven National Laboratory National Nuclear Data Center. Since the 225Ac decays via a complicated decay chain, it is assumed that the dose from the daughters remains in the tissue assuming no biological dissemination once the 225Ac decays breaking the bonds of the DOTA-TATE ligand. The following mean dose per decay were used. For 225Ac, 27.58MeV/Bq-s for alpha emissions, 1.33MeV/Bq-s for beta plus electron emissions. For 86Y, 0.219 MeV/Bq-s for beta and electron emissions. Gamma emissions were ignored because of the small size of the tissue samples have small gamma absorption effects which would contribute negligibly to the dose calculation. Furthermore, dosimetry estimate […]
inter organ activity can be calculated(62).
To estimate the effective dose in mSv/MBq, a radiological factor of 5 was used to multiply the dose calculated from the alpha ionizations while a factor of 1 was used for the beta and electron ionizations to convert from mGy/MBq to mSv/MBq (63, 64).

[2] = Ex vivo biodistribution of 225Ac-labeled variants in AR42J tumor-bearing mice; conditions: athymic nu/nu, mouse, total radioactivity; for tissue uptake at 24 h: 24 h post-injection
Procedure: Prior to conducting targeted alpha-particle therapy studies using three ^225Ac-labeled variants (Fig. S17) in AR42J xenograft-bearing mice, we first assessed their in vivo pharmacokinetics through ex vivo biodistribution studies at 24 h post-injection (Fig. 5A; Tables S4). […]
For studies involving three variants (DOTA -TATE, DOTA-MVK(ε)-TATE, and DOTA-β-Gal-TATE), AR42J cells (5 × 10^6 cells per mouse) were subcutaneously inoculated into the right shoulder of the mice. Tumors were allowed to grow for 3 weeks, reaching a volume of 100 –200 mm³ before being used in subsequent experiments. […]
All samples […]
were weighed and counted on a gamma counter (2480 Wizard 3, Perkin Elmer Inc., Waltham, MA, USA). Results are presented as percentage of injected activity per gram (%IA/g) and mean values ± standard deviations. […]
Prior to conducting alpha particle therapy, biodistribution studies with 225Ac-labeled DOTA - TATE variants (117 – 163 kBq, 1 μg) were performed at 24 hours and 4 days post -injection in athymic nu/nu mice bearing AR42J tumors (n = 4 – 5). Mice were euthanized by CO 2 asphyxiation, and 10 tissues, including tumors, were collected. All samples were weighed and counted on a gamma counter after equilibration for 12 hours. Results are presented as %IA/g and mean values ± standard deviations.

CSCC[C@H](NC(=O)CN1CCN(CC(=O)O)CCN(CC(=O)O)CCN(CC(=O)O)CC1)C(=O)N[C@H](C(=O)N[C@@H](CCCCNC(=O)CCCC(=O)N[C@H](Cc1ccccc1)C(=O)N[C@H]1CSSC[C@@H](C(=O)N[C@H](C(=O)O)[C@@H](C)O)NC(=O)[C@H]([C@@H](C)O)NC(=O)[C@H](CCCCN)NC(=O)[C@@H](Cc2c[nH]c3ccccc23)NC(=O)[C@H](Cc2ccc(O)cc2)NC1=O)C(=O)O)C(C)C [^225Ac-DOTA-MVK(ε)-TATE, metal not drawn]
Glomerulopathy, percentage of mice with grade 0 [1]: 50%
Glomerulopathy, percentage of mice with grade 1+ [1]: 50%
Mice with mild, focal hepatocyte injury [1]: 1 of 6
Tubular damage, percentage of mice with grade 0 [1]: 67%
Tubular damage, percentage of mice with grade 1+ [1]: 17%
Tubular damage, percentage of mice with grade 3+ [1]: 17%
Absorbed dose to kidney (AR42J xenografts): 5.7 Gy
Absorbed dose to tumor (AR42J xenografts): 20.4 Gy
Reduction of kidney dose versus 225Ac-DOTA-TATE (AR42J xenografts): 65 to 70%
Total effective dose per injected activity, Blood (AR42J xenografts): 3.44E+03 mSv/MBq
Total effective dose per injected activity, Femur (AR42J xenografts): 4.19E+04 mSv/MBq
Total effective dose per injected activity, Heart (AR42J xenografts): 1.06E+04 mSv/MBq
Total effective dose per injected activity, Intestine (AR42J xenografts): 2.36E+04 mSv/MBq
Total effective dose per injected activity, Kidney (AR42J xenografts): 1.85 × 10^5 mSv/MBq
Total effective dose per injected activity, Liver (AR42J xenografts): 1.02E+05 mSv/MBq
Total effective dose per injected activity, Lung (AR42J xenografts): 1.95E+04 mSv/MBq
Total effective dose per injected activity, Muscle (AR42J xenografts): 7.16E+03 mSv/MBq
Total effective dose per injected activity, Spleen (AR42J xenografts): 2.55E+04 mSv/MBq
Total effective dose per injected activity, Tumor (AR42J xenografts): 6.64 × 10^5 mSv/MBq
tissue uptake at 24 h ([2]; iv, 1 ug, 225Ac-labeled, AR42J tumor-bearing mice, ex vivo, mean (± SD), n = 4–5, read-out: Kidney uptake): 1.27 ± 0.25 %ID/g
tissue uptake at 24 h ([2]; iv, 1 ug, 225Ac-labeled, AR42J tumor-bearing mice, ex vivo, mean (± SD), n = 4–5, read-out: Liver uptake): 0.61 ± 0.06 %ID/g
tissue uptake at 24 h ([2]; iv, 1 ug, 225Ac-labeled, AR42J tumor-bearing mice, ex vivo, mean (± SD), n = 4–5, read-out: Tumor uptake): 3.83 ± 0.51 %ID/g
tissue uptake at 24 h ([2]; iv, 1 ug, 225Ac-labeled, AR42J tumor-bearing mice, ex vivo, mean, n = 4–5, read-out: Femur uptake): 0.33 %ID/g
tissue uptake at 24 h ([2]; iv, 1 ug, 225Ac-labeled, AR42J tumor-bearing mice, ex vivo, mean, n = 4–5, read-out: Intestine uptake): 0.11 %ID/g
tissue uptake at 24 h ([2]; iv, 1 ug, 225Ac-labeled, AR42J tumor-bearing mice, ex vivo, mean, n = 4–5, read-out: Spleen uptake): 0.32 %ID/g
tissue uptake at 24 h ([2]; iv, 1 ug, 225Ac-labeled, AR42J tumor-bearing mice, i.v. 1 μg (117–163 kBq), ex vivo gamma counting, mean, n = 4–5, read-out: Blood uptake): 0.03 %ID/g
tissue uptake at 96 h ([2]; iv, 1 ug, 225Ac-labeled, AR42J tumor-bearing mice, 4 days post-injection, ex vivo, mean, n = 4–5, read-out: Blood uptake): 0.03 %ID/g
tissue uptake at 96 h ([2]; iv, 1 ug, 225Ac-labeled, AR42J tumor-bearing mice, 4 days post-injection, ex vivo, mean, n = 4–5, read-out: Femur uptake): 0.32 %ID/g
tissue uptake at 96 h ([2]; iv, 1 ug, 225Ac-labeled, AR42J tumor-bearing mice, 4 days post-injection, ex vivo, mean, n = 4–5, read-out: Intestine uptake): 0.07 %ID/g
tissue uptake at 96 h ([2]; iv, 1 ug, 225Ac-labeled, AR42J tumor-bearing mice, 4 days post-injection, ex vivo, mean, n = 4–5, read-out: Kidney uptake): 0.43 %ID/g
tissue uptake at 96 h ([2]; iv, 1 ug, 225Ac-labeled, AR42J tumor-bearing mice, 4 days post-injection, ex vivo, mean, n = 4–5, read-out: Liver uptake): 0.42 %ID/g
tissue uptake at 96 h ([2]; iv, 1 ug, 225Ac-labeled, AR42J tumor-bearing mice, 4 days post-injection, ex vivo, mean, n = 4–5, read-out: Muscle uptake): 0.15 %ID/g
tissue uptake at 96 h ([2]; iv, 1 ug, 225Ac-labeled, AR42J tumor-bearing mice, 4 days post-injection, ex vivo, mean, n = 4–5, read-out: Spleen uptake): 0.19 %ID/g
tissue to tissue ratio at 24 h [2]: 3.05 ± 0.37
tissue to tissue ratio at 96 h [2]: 5.72 ± 0.91
tissue uptake at 96 h [2]: 2.41 ± 0.22 %ID/g
tissue uptake at 24 h ([2]; 225Ac-labeled, AR42J tumor-bearing mice, ex vivo, mean, n = 4–5, read-out: Heart uptake): 0.08 %ID/g
tissue uptake at 24 h ([2]; 225Ac-labeled, AR42J tumor-bearing mice, ex vivo, mean, n = 4–5, read-out: Lung uptake): 0.14 %ID/g
tissue uptake at 24 h ([2]; 225Ac-labeled, AR42J tumor-bearing mice, ex vivo, mean, n = 4–5, read-out: Muscle uptake): 0.09 %ID/g
tissue uptake at 96 h ([2]; 225Ac-labeled, AR42J tumor-bearing mice, 4 days post-injection, ex vivo, mean, n = 4–5, read-out: Heart uptake): 0.12 %ID/g
tissue uptake at 96 h ([2]; 225Ac-labeled, AR42J tumor-bearing mice, 4 days post-injection, ex vivo, mean, n = 4–5, read-out: Lung uptake): 0.11 %ID/g
